Our source for the IC50 of killing of HER-2-overexpressing SKBR3 cells (luminescent cell viability assay; Fig 4A) values is PMC4488448.

The target of this assay is HER-2 (human (endogenous in SKBR3 and T47D)) (UniProt P04626).

As for eSrtA-conjugated cFRP5-DM1 (antibody), the IC50 of killing of HER-2-overexpressing SKBR3 cells (luminescent cell viability assay; Fig 4A) was 0.067 µg/mL.

For “eSrtA-conjugated cFRP5-maytansine (antibody)”, the IC50 of killing of HER-2-overexpressing SKBR3 cells (luminescent cell viability assay; Fig 4A) was 0.0779 µg/mL.
